This is an account of results in US20240165140A1, “MEDICATION FOR INHIBITING DNA-PKCS” (TSINGHUA UNIVERSITY, priority 2017, published 2024).

Experiment [1] concerns mRNA levels of BAX, NOXA, PUMA, and P21. Kind of experiment: Real-time PCR of pro-apoptotic molecules, P53-deficient tumor cells. The class given is cell-based. Particulars: H1299-NC, A549-shP53; Endostatin 10 μg/ml added 1 h before Etoposide 1 μM, 16 h. The procedure:
After the cells were treated as described above, the total RNA of the cells was extracted, and the relative changes in mRNA levels of BAX, NOXA, PUMA, and P21 in the cells were detected by real-time PCR.

Experiment [2] deals with P53-deficient tumor cells (H1299-NC and A549-shP53). The experiment can be described thus: CCK8 cell activity, P53-deficient tumor cells. The class given is cell-based. The procedure:
(§1) First, a lentivirus kit (purchased from Shanghai Genepharma) was used to construct a P53 stably overexpressing H1299 cell line (H1299-P53) and a P53 stably knockdown A549 cell line […]. The P53 sequence targeted by the shRNA used to knock down P53 in A549 cells was 5′-[…]-3′ (SEQ ID NO: 4). Virus transfection and the construction of stable cell lines were performed according to the kit instructions. […] After treatment for 12 hours, the drug-containing medium was replaced with a normal medium and the cells were further cultured for 72 hours. Cell activity was measured according to the instructions of the CCK8 kit (Dojindo, Tokyo, Japan).
(§2) In this example, another chemical drug, Doxorubicin, was used to verify that Endostatin can enhance the sensitivity of P53-deficient tumor cells to chemotherapy. Operation process was the same as in Example 5.

Another experiment has as its system H1299 and A549 cells. The experiment can be described thus: Annexin V-FITC/PI apoptosis by flow cytometry with DNA-PKcs siRNA knockdown. The class given is cell-based. Particulars: Endostatin 10 μg/ml added 1 h before Etoposide (10 μM for H1299, 1 μM for A549, 16 h). The procedure: In this example, tumor cells (including H1299 and A549 cells) were divided into eight treatment groups. In the first four groups, cells were transfected with control siRNA, and in the last four groups, cells were transfected with siRNA that specifically knocked down DNA-PKcs. The siRNA sequence of DNA-PKcs is: forward 5′-[…]-3′ (SEQ ID NO: 5), reverse 5′-[…]-3′ (SEQ ID NO: 6). The siRNA transfection method was performed according to the instructions of the transfection reagent Lipofectamine 2000. Then, in the eight groups, the cells were treated with drugs. […] Cells were collected and operations were performed according to the instructions of Annexin V-FITC/PI Apoptosis Detection Kit. Apoptosis was detected by flow cytometry. A549 cells were P53 wild-type cells, and H1299 cells were P53-deficient cells.
A general note: Flow cytometry measures light scatter and fluorescence of single cells or particles in a stream.

In another experiment the test system is MDA-MB-435S cells. The experiment can be described thus: CCK8 cell activity, melanoma MDA-MB-435S. The class given is cell-based. Particulars: MDA-MB-435S (P53 mutant); operation process as in Example 5. On the procedure:
as §1
(§3) This example used two cell lines of another tumor type (melanoma), the MDA-MB-435S (P53 mutant) and A375 (P53 wild type) cell lines, to verify the regulatory function of Endostatin on the chemotherapeutic sensitivity of other types of tumor cells with different P53 status. Operation process was the same as in Example 5.

Experiment [3] deals with DNA-PKcs, PARP, γH2AX and Caspase-3 signaling pathways. Kind of experiment: Immunoblotting of DNA damage and apoptotic pathway, P53-deficient tumor cells. The class given is cell-based. Particulars: H1299-NC, A549-shP53; Endostatin 10 μg/ml, Etoposide 10 μM 16 h, z-DEVD-fmk 10 μM; Endostatin and z-DEVD-fmk added 1 h before Etoposide. A general note: Immunoblotting shows a protein as a band on a membrane.
Source text: (§6) In this example, tumor cells (H1299-NC, H1299-P53, A549-NC, A549-shP53) were divided into six treatment groups.

Experiment [4] relates to tumor cells with normal P53 function (H1299-P53 and A549-NC). The experiment can be described thus: CCK8 cell activity, tumor cells with normal P53 function. The class given is cell-based. On the procedure: as §1, §2
Another experiment concerns H1299 mouse tumor model. Kind of experiment: Survival of H1299 tumor-bearing mice. Particulars: administration as in Example 12, stopped after 25 days. The class given is in vivo. The procedure: (§4) Tumor-bearing nude mice were randomly divided into four groups with 6 to 8 animals for each group, and different drug treatments were performed. […] Tumor volume was measured every other day. 2 to 4 weeks after administration, the mice were sacrificed and the tumor tissue was removed for further use.
H1299 and A549 cells were cultured in a vigorous and proliferative state, and tumor collection, grouping, and administration methods were the same as in Example 12. The administration was stopped after 25 days, and the survival of the mice was recorded daily, and the survival curve of the mice was plotted.

The subject of a further experiment is A375 cells. Kind of experiment: CCK8 cell activity, melanoma A375. The class given is cell-based. Particulars: A375 (P53 wild type); operation process as in Example 5. On the procedure: as §1, §3
The test system of a further experiment is A549-NC tumor. Kind of experiment: Subcutaneous tumor growth in nude mice, A549-NC. The class given is in vivo. The procedure:
as §4

In experiment [5] the test system is DNA-PKcs, PARP, γH2AX and Caspase-3 signaling pathways. Kind of experiment: Immunoblotting of DNA damage and apoptotic pathway, tumor cells with normal P53 function. Particulars: H1299-P53, A549-NC; Endostatin 10 μg/ml, Etoposide 10 μM 16 h, z-DEVD-fmk 10 μM; Endostatin and z-DEVD-fmk added 1 h before Etoposide.
Source text: as §6
In experiment [6] the test system is P53-deficient tumor cells (H1299-NC, A549-shP53). The experiment can be described thus: Cell colony formation, P53-deficient tumor cells. The class given is cell-based. Particulars: Endostatin 10 μg/ml added 1 h before Etoposide 1 μM, 16 h; colonies after 14 days. The procedure:
After the treatment, the cells were digested with trypsin, counted, and re-plated in a six-well plate with 1000 cells per well. The cells were cultured in a normal medium for 14 days to form cell colonies.

Experiment [7] has the same test system. Kind of experiment: PI staining apoptosis by flow cytometry, P53-deficient tumor cells. The class given is cell-based. Particulars: Endostatin 10 μg/ml added 1 h before Etoposide 1 μM, 16 h. The procedure: (§5) The apoptotic cells and adherent cells floating in the culture medium were collected, and the cells were suspended in 500 μl PBS containing 0.05 mg/ml propidium iodide (PI), stained for 15 min at room temperature in dark, and detected by flow cytometry (BD FACS Calibur). PI-positive cells represent apoptotic cells.

Experiment [8] relates to tumor cells with normal P53 function (H1299-P53, A549-NC). The experiment can be described thus: PI staining apoptosis by flow cytometry, tumor cells with normal P53 function. Particulars: Endostatin 10 μg/ml added 1 h before Etoposide 1 μM, 16 h. The class given is cell-based. The procedure: as §5
The subject of a further experiment is H1299-NC tumor. The experiment can be described thus: Subcutaneous tumor growth in nude mice, H1299-NC. Particulars: Day 19, compared with control group, Endostatin 20 mg/kg i.p. once a day, Etoposide 2 mg/kg i.p. once every two days. The class given is in vivo. On the procedure: as §4
Setting [9] is: Operation process as in Example 5, Doxorubicin instead of Etoposide.

B1: Endostatin: recombinant natural human endostatin expressed by E. coli, from Protgen, SEQ ID NO: 2 (protein)
chain: MHSHRDFQPVLHLVALNSPLSGGMRGIRGADFQCFQQARAVGLAGTFRAFLSSRLQDLYSIVRRADRAAVPIVNLKDELLFPSWEALFSGSEGPLKPGARIFSFDGKDVLRHPTWPQKSVWHGSDPNGRRLTESYCETWRTEAPSATGQASSLLGGRLLGQSAASCHHAYIVLCIENSFMTASK
modifications: The amino acid sequence of natural human endostatin
Consider B1, for which the “Effect on up-regulation of pro-apoptotic molecules by Etoposide (mRNA)” value in experiment [1] is listed as “could enhance Etoposide to up-regulate pro-apoptotic molecules”. The “Effect on toxicity of Etoposide to tumor cells (cell activity)” value in experiment [2] (Endostatin 10 μg/ml pretreatment 1 h, Etoposide 0, 0.1, 1, 10 μM, 12 hours treatment, 72 hours further culture) is on record as “could enhance the toxicity of Etoposide to tumor cells”; with MDA-MB-435S cells, “could enhance the toxicity of Etoposide to tumor cells”. In addition, the “Effect on toxicity of Doxorubicin to tumor cells (cell activity)” value in experiment [2] (setting [9]) is “could enhance the toxicity of Doxorubicin to tumor cells”. In the experiment on H1299 and A549 cells (DNA-PKcs siRNA), the “Role of Endostatin in promoting apoptosis induced by Etoposide after knocking down DNA-PKcs” value is listed as “weakened”. Moreover, the Etoposide-induced apoptosis result in the experiment with H1299 and A549 cells (control siRNA) was “would further promote Etoposide-induced apoptosis”. Moreover, the “DNA-PKcs, PARP, γH2AX and Caspase-3 signaling pathway levels” value in experiment [3] and in experiment [5] was “did not affect the above-mentioned signaling pathway levels” in each case. Also, the “Effect on the inhibitory effect of Etoposide on cell activity” value in experiment [4] (Endostatin 10 μg/ml pretreatment 1 h, Etoposide 0, 0.1, 1, 10 μM) is recorded as “did not significantly enhance the inhibitory effect of Etoposide”; in the experiment on A375 cells it was “did not significantly enhance the inhibitory effect of Etoposide”. The “Effect on the inhibitory effect of Doxorubicin on cell activity” value in experiment [4] (setting [9]) is given as “did not significantly enhance the inhibitory effect of Doxorubicin”. Further, the “median survival time longer than that of the control group” value in the experiment on H1299 mouse tumor model worked out at 24.2%. For the same molecule, the tumor suppression rate came to 40.9% in the experiment with A549-NC tumor (Day 27, compared with control group, Endostatin 20 mg/kg i.p. once a day, Etoposide 2 mg/kg i.p. once every two days) and 19.6% in the experiment with H1299-NC tumor. The “Effect on the inhibitory effect of Etoposide on tumor growth” value in the experiment on A549-NC tumor (Endostatin 20 mg/kg i.p. once a day and Etoposide 2 mg/kg i.p. once every two days) is reported as “could not enhance the inhibitory effect of Etoposide on tumor growth”. Moreover, in experiment [6], the “Effect on inhibition of tumor cell colony-forming ability by Etoposide” value is on record as “could enhance the inhibitory effect of Etoposide on tumor cell colony-forming ability”. Also, the “Effect on ability of Etoposide to promote apoptosis (PI-positive cells)” value in [7] is on record as “could enhance the ability of Etoposide to promote the apoptosis of tumor cells”. Besides, in experiment [8], the “Effect on the pro-apoptotic effect of Etoposide (PI-positive cells)” value is on record as “did not significantly enhance the pro-apoptotic effect of Etoposide”.
